Measurements as given in US6033823A, “Mutated penicillin G acylase genes” (priority 1994, dated 2000).

Columns and labels:
Experiment in all cases: Deacylation kinetics and phenylacetic acid product inhibition, mutant A:M143V
Format in all cases: biochemical, Alcaligenes faecalis
[1] = substrate: CC1(C)S[C@@H]2[C@H](NC(=O)COc3ccccc3)C(=O)N2[C@H]1C(=O)O; details: other: A:M143V; 40 mM NaH2PO4, pH 7.5, 37° C.; pH 7.5; 37.0 °C
Protocol: (§1) In order to determine enzymatic activity the acylases were incubated with substrate at room temperature in buffered solution. In case β-lactamase impurity was expected to be present in the enzyme preparations, 1.0 mM -lactamase inhibitor 6-bromo-penicillanic acid was added to the assay. The reactions were stopped by adding an excess PMSF. For some mutants which were less sensitive to PMSF inhibition, the reactions were stopped by adding 0.5 M HCl or 0.5 M acetic acid until the pH was between 3 and 4. When reactions were subsequently analysed by HPLC, the reactions were stopped by dilution with the correponding elution solvent (see table 1). In addition substrates were incubated under assay conditions in absence of enzyme. If necessary enzyme assays were corrected for non-enzymatic hydrolysis
(§2) The composition of the reaction mixtures was determined by high-performanceliquid chromatography (HPLC)(table 1). Concentrations were determined by using standards of known concentration.
(§3) In a continuous assay Penicillin G acylase was assayed spectro-fotometrically with the chromogenic substrate NIPAB [6-nitro-3-phenylacetamido-benzoic acid]. The liberation of 3-amino-6-nitrobenzoic acid was monitored by measuring the extinction at 405 nm in a Kontron 610 kinetic spectrofotometer. […] Initial rate measurements were performed with varying concentration of NIPAB. […]
(§4) Initial rate measurements were performed with excess substrate over the enzyme. Catalytic parameters were derived from least-squares fitting of the measured initial rates plotted for various substrate concentrations according to the Michaelis-Menten equation.
(§5) The complete conversion of NIPAB was followed as a funtion of time at 20, 50 and 100 μM NIPAB by following the increase in absorbtion at 405 nm. Products of this conversion are phenylacetic acid and 3-amino-6-nitrobenzoic acid. […] The progress curves of the deacylation of NIPAB could be fitted very well when product inhibition by phenylacetic acid was taken into account. The dissociation constants (usually referred to as inhibition constant Ki) for phenylacetic acid which could be derived from the progress curves is shown in table 11. For these mutants the yield of the conversion in a fixed time span is higher than for wild type. Alternatively, in order to obtain a certain yield a shorter conversion time is needed for the mutants.

[2] = substrate: CC1(C)S[C@@H]2[C@H](NC(=O)Cc3ccccc3)C(=O)N2[C@H]1C(=O)O; details: other: A:M143V; 40 mM NaH2PO4, pH 7.5, 37° C.; pH 7.5; 37.0 °C
Protocol: as §1, §2, §3, §4, §5

[3] = substrate: CC1(C)S[C@@H]2[C@H](NC(=O)[C@H](N)c3ccc(O)cc3)C(=O)N2[C@H]1C(=O)O; details: other: A:M143V; 20 mM NaH2PO4, pH 7.0, 37° C.; pH 7.0; 37.0 °C
Protocol: as §1, §2, §3, §4, §5

[4] = substrate: CC1(C)S[C@@H]2[C@H](NC(=O)[C@H](N)c3ccccc3)C(=O)N2[C@H]1C(=O)O; details: other: A:M143V; 20 mM NaH2PO4, pH 7.0, 37° C.; pH 7.0; 37.0 °C
Protocol: as §1, §2, §3, §4, §5

[5] = substrate: CC1=C(C(=O)O)N2C(=O)[C@@H](NC(=O)Cc3ccccc3)[C@H]2SC1; details: other: A:M143V; 20 mM NaH2PO4, pH 7.5, 37° C.; pH 7.5; 37.0 °C
Protocol: as §1, §2, §3, §4, §5

[6] = substrate: NC(=O)[C@H](N)c1ccccc1; details: other: A:M143V; 20 mM NaH2PO4, pH 7.0, 37° C.; pH 7.0; 37.0 °C
Protocol: as §1, §2, §3, §4, §5

[7] = substrate: O=C(Cc1ccccc1)Nc1ccc([N+](=O)[O-])c(C(=O)O)c1; details: other: A:M143V; 0.1M NaH2PO4, pH 7.5, 25° C.; pH 7.5; 25.0 °C
Protocol: as §1, §2, §3, §4, §5

B1: Alcaligenes faecalis Penicillin G acylase mutant A:M143V (Alcaligenes faecalis; M169V) (protein)
chain 1: QVQSVEVMRDSYGVPHVFADSHYGLYYGYGYAVAQDRLFQMDMARRSFVGTTAAVLGPGEQDAYVKYDMQVRQNFTPASIQRQIAALSKDERDIFRGYADGYNAYLEQVRRRPELLPKEYVDFDFQPEPLTDFDVVMIWVGSVANRFSDTNLEVTALAMRQSLEKQHGPERGRALFDELLWINDTTAPTTVPAPAAEHKPQA
chain 2: SNLWSTRPERVQEGSTVLINGPQFGWYNPAYTYGIGLHGAGFDVVGNTPFAYPIVLFGTNSEIAWGATAGPQDVVDIYQEKLNPSRADQYWFNNAWRTMEQRKERIQVRGQADREMTIWRTVHGPVMQFDYDQGAAYSKKRSWDGYEVQSLLAWLNVAKARNWTEFLDQASKMAISINWYYADKHGNIGYVSPAFLPQRPADQDIRVPAKGDGSMEWLGIKSFDAIPKAYNPPQGYLVNWNNKPAPDKTNTDTYYWTYGDRMNELVSQYQQKDLFSVQEIWEFNQKASYSDVNWRYFRPHLEKLAQQLPADDSSKAALTMLLAWDGMEQDQGGQNAGPARVLFKTWLEEMYKQVLMPVVPESHRAMYSQTGFATQQGPNPGSINLSMGTKVLLRALVLEAHPDPKRVNVFGERSSQEIMHTALQNAQARLSQEQGAQMARWTMPTSVHRFSDKNFTGTPQTMPGNTFAFTGYQNRGTENNRVVFDAKGVEFCDAMPPGQSGFTDRNGVRSPHYEDQLKLYENFECKTMDVTHADIRRNAQSSTMLLIQPQP
notes: alpha 202 aa, beta 551 aa; recombinant, E. coli host
Km [1]: 31 µM
Vmax [1]: 10.3 U/mg
Km [2]: 6 µM
Vmax [2]: 40.5 U/mg
Km [3]: 21 mM
Vmax [3]: .2 U/mg
Km [4]: 1500 µM
Vmax [4]: 23.0 U/mg
Km [5]: 7 µM
Vmax [5]: 56.4 U/mg
Km [6]: 35 mM
Vmax [6]: 22.2 U/mg
Km [7]: 17 µM
Vmax [7]: 35.7 U/mg
